Reference: the supplement of paper PMC7877785
± gives the uncertainty stated by the source.

Assay: self-splicing fitness, log relative to wild type (ln ratio); higher = more splicing; Tetrahymena group I intron in knt gene, E. coli kanamycin selection, DiMSum; sequences stand for … in CUCUCU…GGAGGGAAAAGUUAUCAGGCAUGCACCUGGUAGCUAGUCUUUAAACCAAUAGAUUGCAUCGGUUUAAAAGGCAAGACCGUCAAAUUGCGGGAAAGGGGUCAACAGCCGUUCAGUACCAAGUCUCAGGGGAAACUUUGAGAUGGCCUUGCAAAGGGUAUGGUAAUAAGCUGACGGACAUGGUCCUAACCACGCAGCCAAGUCCUAAGUCAACAGAUCUUCUGUUGAUAUGGAUGCAGUUCACAGACUAAAUGUCGGUCGGGGAAGAUGUAUUCUUCUCAUAAGAUAUAGUCGGACCUCUCCUUAAUGGGAGCUAGCGGAUGAAGUGAUGCAACACUGGAGCCGCUGGGAACUAAUUUGUAUGCGAAAGUAUAUUGAUUAGUUUUGGAGUACUCGUGGUCG
Method in brief: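 Fitness was computed with DiMSum as the error-weighted combination of replicate fold changes, kanamycin versus none, each normalised to wild type. The library randomised all eight intron nucleotides of the P1ex region, with the intron placed in the knt kanamycin-resistance gene on pET-22b(+) in E. coli BL21(DE3). Six replicate transformations were grown overnight at 37°C or 30°C on LB agar with or without 25 μg/mL kanamycin, plus 100 μg/mL carbenicillin, 50 μM IPTG and 0.2% rhamnose. Pooled colonies were amplicon-sequenced on an Illumina HiSeq 2500.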

Sequence | self-splicing fitness (ln) (30 °C) | self-splicing fitness (ln) (37 °C)
GUAUAGCAAUAUUACGACGU | -0.443 ± 0.069 | 0.436 ± 0.092
AACAAGCAAUAUUACGCGGU | -3.69 ± 0.14 | -2.03 ± 0.11
GGAAAGCAAUAUUACGAGAU | -2.44 ± 0.17 | -2.17 ± 0.29
GUAUAGCAAUAUUACGGAGU | -3.8 ± 0.3 | -3.49 ± 0.29
GUGAAGCAAUAUUACGGACA | 0.209 ± 0.092 | -0.366 ± 0.1
CGAUAGCAAUAUUACGAUAG | -0.572 ± 0.089 | -0.275 ± 0.1
UCCGAGCAAUAUUACGCAUA | -2.24 ± 0.42 | -2.26 ± 0.35
CUUAAGCAAUAUUACGGUUC | -4.11 ± 0.19 | -3.1 ± 0.26
GAGCAGCAAUAUUACGAAUG | -3.81 ± 0.2 | -1.94 ± 0.14
GCUAAGCAAUAUUACGCGAU | -2.05 ± 0.45 | -0.565 ± 0.25
CAGAAGCAAUAUUACGUCCC | -2.92 ± 0.3 | -1.49 ± 0.28
GUCAAGCAAUAUUACGUGGG | -3 ± 0.13 | -2.23 ± 0.2
UUUAAGCAAUAUUACGCUAA | -2.34 ± 0.17 | -1.09 ± 0.19
GGAUAGCAAUAUUACGGGUC | -4.23 ± 0.46 | -2.64 ± 0.29
CUCCAGCAAUAUUACGUGAC | -3.38 ± 0.15 | -2.98 ± 0.3
CAAGAGCAAUAUUACGUACG | -0.91 ± 0.084 | 0.0935 ± 0.11
CCGCAGCAAUAUUACGAUUU | -3.28 ± 0.14 | -2.22 ± 0.15
UGUCAGCAAUAUUACGUGUU | -3.51 ± 0.15 | -1.23 ± 0.11
CUCAAGCAAUAUUACGUGUA | -2.47 ± 0.13 | -1.91 ± 0.11
CCUAAGCAAUAUUACGCUAC | – | -1.53 ± 0.31
CGGCAGCAAUAUUACGGGCA | -2.31 ± 0.26 | -0.644 ± 0.13
AACCAGCAAUAUUACGCUGC | -2.31 ± 0.18 | -3.1 ± 0.24
GACAAGCAAUAUUACGUUGU | -3.54 ± 0.12 | -2.81 ± 0.14
CUCAAGCAAUAUUACGUAAU | -3.29 ± 0.12 | -2.22 ± 0.1

Sequence | self-splicing fitness (ln) (30 °C) | self-splicing fitness (ln) (37 °C)
CUGGAGCAAUAUUACGAGAU | -4.02 ± 0.39 | -2.49 ± 0.44
AGUUAGCAAUAUUACGGAAA | -2.89 ± 0.35 | -2.55 ± 0.44
CUUCAGCAAUAUUACGGCAG | -0.556 ± 0.12 | -0.351 ± 0.14
AUUCAGCAAUAUUACGUUUC | -3.75 ± 0.16 | -2.13 ± 0.24
CGUAAGCAAUAUUACGCCAC | -2.55 ± 0.42 | -0.936 ± 0.3
CAAUAGCAAUAUUACGUGGU | -3.82 ± 0.17 | -2.53 ± 0.18
GGAGAGCAAUAUUACGAUAG | – | -1.94 ± 0.28
GUUUAGCAAUAUUACGCGAG | -1.48 ± 0.17 | -0.934 ± 0.16
UAGGAGCAAUAUUACGGCAU | -4.07 ± 0.39 | -1.5 ± 0.25
AUGAAGCAAUAUUACGUUCA | 0.00482 ± 0.072 | 0.318 ± 0.1
GAUAAGCAAUAUUACGACAA | -1.46 ± 0.11 | -0.276 ± 0.14
CAACAGCAAUAUUACGCUCA | -1.15 ± 0.096 | -1.4 ± 0.12
CCCCAGCAAUAUUACGCGUC | -3.21 ± 0.17 | -2.92 ± 0.18
UCCGAGCAAUAUUACGUUAA | -2.36 ± 0.21 | -2.57 ± 0.28
ACUGAGCAAUAUUACGUCUG | -3.59 ± 0.28 | -2.43 ± 0.2
AACCAGCAAUAUUACGAGCC | -2.85 ± 0.17 | -1.72 ± 0.16
ACAGAGCAAUAUUACGAAAU | -2.57 ± 0.45 | -1.01 ± 0.29
CGAAAGCAAUAUUACGAAUA | -2.47 ± 0.29 | -2.14 ± 0.2
AGAUAGCAAUAUUACGCCGC | -3.03 ± 0.3 | -2.04 ± 0.32
CAGGAGCAAUAUUACGCAUU | – | 0.11 ± 0.4
CCGCAGCAAUAUUACGUACG | -0.247 ± 0.058 | 0.254 ± 0.069
CCAUAGCAAUAUUACGGGUG | -1 ± 0.06 | -1.48 ± 0.078
UCUAAGCAAUAUUACGGCGG | -0.251 ± 0.076 | -0.431 ± 0.096
GUCGAGCAAUAUUACGUAUU | -1.52 ± 0.29 | -0.948 ± 0.23
